What is called stoichiometry N is a count of units in the complex or per binding partner. As a reminder, the Kd is the constant that tells how readily two partners part at equilibrium. Read a high Kd as lower affinity.

Test [1] deals with C-terminal domain of SepF from M. tuberculosis (tbSepF-CTD, residues 146-241) (M. tuberculosis). Nature of the test: AUC.
For test [2] the target is unchanged. In words: SAXS.
For test [3] the target is unchanged. Nature of the test: ITC. For orientation: Isothermal titration calorimetry measures the heat released or taken up as one component is titrated into another.

Chain of C-terminal domain of SepF from M. tuberculosis (tbSepF-CTD, residues 146-241) (M. tuberculosis) (A1KKJ0 123-218 limits assumed): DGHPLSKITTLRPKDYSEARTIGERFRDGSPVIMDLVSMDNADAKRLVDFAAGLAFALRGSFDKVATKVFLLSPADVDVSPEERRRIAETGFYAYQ

In the case of “C-terminal domain of SepF from M. tuberculosis (tbSepF-CTD, residues 146-241) (domain or fragment)”, the stoichiometry N in test [1] and in test [2] was 2 in each case.

In test [3], “chemically synthesized 18-residue peptide from the C-terminal region of tbFtsZ” yielded a Kd of 19.7 µM and a stoichiometry N of 1.
